Test results taken from patent publication US20230287120A1 (ALLOGENE THERAPEUTICS, published 2023).

Experiments:
[1] = target: T1, human DLL3 on cells (endogenous on SHP-77, DMS 273, DMS 454; full length human DLL3 by lentivirus on HEK-293T) (human, UniProt Q9NYJ7 27-618); assay: flow cytometry on DMS 273, DMS 454 and SHP-77 cells, 2 ug/ml antibody, PE anti-mouse IgG
T1 construct: whole, on cells
T1 sequence (looked up): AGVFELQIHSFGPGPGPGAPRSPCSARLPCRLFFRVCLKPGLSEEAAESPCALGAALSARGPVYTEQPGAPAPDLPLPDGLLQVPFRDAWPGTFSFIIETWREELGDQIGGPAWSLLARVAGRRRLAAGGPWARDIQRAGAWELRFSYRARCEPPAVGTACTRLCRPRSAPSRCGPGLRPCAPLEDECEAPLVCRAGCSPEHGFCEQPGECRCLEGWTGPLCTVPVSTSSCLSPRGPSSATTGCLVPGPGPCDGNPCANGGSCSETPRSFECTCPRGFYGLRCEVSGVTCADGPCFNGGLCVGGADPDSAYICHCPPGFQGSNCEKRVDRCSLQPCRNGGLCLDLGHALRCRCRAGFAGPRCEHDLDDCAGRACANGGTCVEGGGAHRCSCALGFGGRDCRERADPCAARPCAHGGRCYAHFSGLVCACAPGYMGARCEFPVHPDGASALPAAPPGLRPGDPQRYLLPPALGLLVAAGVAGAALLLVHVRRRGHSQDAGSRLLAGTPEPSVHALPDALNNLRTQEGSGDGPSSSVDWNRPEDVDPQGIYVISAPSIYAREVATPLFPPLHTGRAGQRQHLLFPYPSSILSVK

[2] = target: T2, full length human DLL3 with N-terminal HA tag, expressed on CHO cells (human, UniProt Q9NYJ7 27-618); assay: flow cytometry on CHO cells with full length and truncated human DLL3; column Binds to DLL3 Domain
T2 construct: also called Human DLL3 complete ECD
T2 sequence: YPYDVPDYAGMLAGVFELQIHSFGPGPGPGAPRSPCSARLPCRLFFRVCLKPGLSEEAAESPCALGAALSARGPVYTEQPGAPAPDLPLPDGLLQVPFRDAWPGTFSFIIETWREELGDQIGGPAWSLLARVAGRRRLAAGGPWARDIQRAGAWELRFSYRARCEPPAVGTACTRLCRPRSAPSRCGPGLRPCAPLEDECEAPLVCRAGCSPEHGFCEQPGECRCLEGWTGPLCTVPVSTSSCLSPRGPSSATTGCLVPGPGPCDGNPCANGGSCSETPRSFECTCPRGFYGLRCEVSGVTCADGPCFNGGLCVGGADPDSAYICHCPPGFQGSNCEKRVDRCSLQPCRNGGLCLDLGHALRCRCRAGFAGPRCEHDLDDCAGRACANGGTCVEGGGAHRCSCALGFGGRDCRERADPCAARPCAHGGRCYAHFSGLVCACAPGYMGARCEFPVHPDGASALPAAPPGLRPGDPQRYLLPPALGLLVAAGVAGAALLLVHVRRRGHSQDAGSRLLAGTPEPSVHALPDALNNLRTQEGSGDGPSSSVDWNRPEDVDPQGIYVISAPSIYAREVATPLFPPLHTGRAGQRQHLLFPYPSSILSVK

[3] = target: T3, Flag tagged recombinant DLL3 (Adipogen) (Homo sapiens (Human), UniProt Q9NYJ7 27-492); assay: flow cytometry, primary T cells with the CAR, Flag tagged recombinant DLL3, PE anti-Flag
T3 construct: Bought reagent; also called Flag-DLL3
T3 sequence: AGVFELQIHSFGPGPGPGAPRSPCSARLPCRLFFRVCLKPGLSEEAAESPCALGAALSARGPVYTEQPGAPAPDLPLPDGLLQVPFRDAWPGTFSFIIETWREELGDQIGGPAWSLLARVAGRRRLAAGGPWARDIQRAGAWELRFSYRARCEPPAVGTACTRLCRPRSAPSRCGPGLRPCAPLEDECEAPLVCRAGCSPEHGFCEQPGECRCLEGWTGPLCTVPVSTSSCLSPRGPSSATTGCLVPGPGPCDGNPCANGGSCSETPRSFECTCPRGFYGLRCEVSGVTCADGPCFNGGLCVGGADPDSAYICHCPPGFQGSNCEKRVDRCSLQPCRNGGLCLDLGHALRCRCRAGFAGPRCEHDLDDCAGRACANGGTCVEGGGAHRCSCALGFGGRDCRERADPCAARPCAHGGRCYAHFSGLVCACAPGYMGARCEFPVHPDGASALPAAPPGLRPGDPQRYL

B1: anti-DLL3 antibody 10G1-K (antibody, V domains shown)
VH: EVQLLESGGGLVQPGGSLRLSCAASGFTFSSYAMNWVRQAPGKGLEWVSTISGSGGSTYYADSVKGRFTISRDNSKNTLYLQMNSLRAEDTAVFYCAIDPEYYDILTGGDYWGQGTLVTVSS
VL: DIQMTQSPSAMSASVGDRVTITCRASQGISNYLAWFQQKPGKVPKRLIYAASSLQSGVPSRFSGSGSGTEFTLTISSLQPEDFATYFCLQHDSFPLTFGGGTKVEIK
B1: binds [1]; binds [2].

B2: 4H8 RSR (other)
CAR: GGGGSCPYSNPSLCGGGGSQVQLQQSGPGLVKPSQTLSLTCAISGDSVSSNSATWNWIRQSPSRGLEWLGRTYYRSKWYDDYAVSVKSRITINPDTSKNHLSLHLNSVTPEDTAVYYCAGGGLVGAPDGFDVWGQGTMVTVSSGGGGSGGGGSGGGGSGGGGSQSVLTQPPSASGTPGQRVTISCSGSSSNIGSDPVNWYQQLPGTAPKLLIYSNNQRPSGVPDRFSGSKSGTSASLAISGLQSEDEADYYCSAWDDSLNGYVFGTGTKVTVLGGGGSCPYSNPSLCGGGGSTTTPAPRPPTPAPTIASQPLSLRPEACRPAAGGAVHTRGLDFACDIYIWAPLAGTCGVLLLSLVITKRGRKKLLYIFKQPFMRPVQTTQEEDGCSCRFPEEEEGGCELRVKFSRSADAPAYQQGQNQLYNELNLGRREEYDVLDKRRGRDPEMGGKPRRKNPQEGLYNELQKDKMAEAYSEIGMKGERRRGKGHDGLYQGLSTATKDTYDALHMQALPPR
notes: member of group m45; also called 4H8-RSR anti-DLL3 CAR with safety switch, on primary T cells
With B2 the “Rec-DLL3+ gate, percent of live CD3+ cells” value (shortened to “Rec-DLL3+ gate, percent”) [3] was 51.9%.

B3: 10G1-K RSR (other)
CAR: GGGGSCPYSNPSLCGGGGSEVQLLESGGGLVQPGGSLRLSCAASGFTFSSYAMNWVRQAPGKGLEWVSTISGSGGSTYYADSVKGRFTISRDNSKNTLYLQMNSLRAEDTAVFYCAIDPEYYDILTGGDYWGQGTLVTVSSGGGGSGGGGSGGGGGSGGGGSDIQMTQSPSAMSASVGDRVTITCRASQGISNYLAWFQQKPGKVPKRLIYAASSLQSGVPSRFSGSGSGTEFTLTISSLQPEDFATYFCLQHDSFPLTFGGGTKVEIKGGGGSCPYSNPSLCGGGGSTTTPAPRPPTPAPTIASQPLSLRPEACRPAAGGAVHTRGLDFACDIYIWAPLAGTCGVLLLSLVITKRGRKKLLYIFKQPFMRPVQTTQEEDGCSCRFPEEEEGGCELRVKFSRSADAPAYQQGQNQLYNELNLGRREEYDVLDKRRGRDPEMGGKPRRKNPQEGLYNELQKDKMAEAYSEIGMKGERRRGKGHDGLYQGLSTATKDTYDALHMQALPPR
notes: member of group m46; also called 10G1-K RSR anti-DLL3 CAR with safety switch, on primary T cells
For B3, the “Rec-DLL3+ gate, percent” value [3] was 42.7%.

B4: 10G1-K R2S (other)
CAR: GGGGSCPYSNPSLCGGGGSCPYSNPSLCGGGGSEVQLLESGGGLVQPGGSLRLSCAASGFTFSSYAMNWVRQAPGKGLEWVSTISGSGGSTYYADSVKGRFTISRDNSKNTLYLQMNSLRAEDTAVFYCAIDPEYYDILTGGDYWGQGTLVTVSSGGGGSGGGGSGGGGGSGGGGSDIQMTQSPSAMSASVGDRVTITCRASQGISNYLAWFQQKPGKVPKRLIYAASSLQSGVPSRFSGSGSGTEFTLTISSLQPEDFATYFCLQHDSFPLTFGGGTKVEIKTTTPAPRPPTPAPTIASQPLSLRPEACRPAAGGAVHTRGLDFACDIYIWAPLAGTCGVLLLSLVITKRGRKKLLYIFKQPFMRPVQTTQEEDGCSCRFPEEEEGGCELRVKFSRSADAPAYQQGQNQLYNELNLGRREEYDVLDKRRGRDPEMGGKPRRKNPQEGLYNELQKDKMAEAYSEIGMKGERRRGKGHDGLYQGLSTATKDTYDALHMQALPPR
notes: member of group m46; also called 10G1-K-R2S anti-DLL3 CAR with safety switch, on primary T cells
With B4 the “Rec-DLL3+ gate, percent” value [3] was 39.3%.

B5: anti-DLL3 antibody 4E6 (antibody, V domains shown)
VH: QVQLQESGPGLVKPSETLSLTCTVSSDSISSYYWSWIRQPPGKGLEWISYIYYSGISNYNPSLKSRVSISVDTSKNQFSLRLSSVTAADTAVYYCARISVAGFFFDNWGQGTLVTVSS
VL: EIMLTQSPDTLSLSPGERATLSCRASQSVSSSYLAWYQQKPGQAPRLLIYGASSRAAGVPDRFSGSGSGTDFTLTISRLAPEDFVVYYCQQYGISPLTFGGGTKVEIK
B5: binds [1]; binds [2].

B6: 2G1 R2S (other)
CAR: GGGGSCPYSNPSLCGGGGSCPYSNPSLCGGGGSQLQLQESGPGLVKPSETLSLTCTVSGGSISSSSYYWGWIRQPPGKGLEWIGSIYYSGNIYHNPSLKSRVSISVDTSKNQFSLRLSSVTAADTAVYYCAREIIVGATHFDYWGQGTLVTVSSGGGGSGGGGSGGGGSGGGGSAIQMTQSPSSLSASVGDRVTITCRASQGIRNDLGWYQQKPGKAPELLIYAASSLQSGVPSRFSGSGSGTDFTLTISSLQPEDFATYYCLQDYNYPLTFGPGTKVDIKTTTPAPRPPTPAPTIASQPLSLRPEACRPAAGGAVHTRGLDFACDIYIWAPLAGTCGVLLLSLVITKRGRKKLLYIFKQPFMRPVQTTQEEDGCSCRFPEEEEGGCELRVKFSRSADAPAYQQGQNQLYNELNLGRREEYDVLDKRRGRDPEMGGKPRRKNPQEGLYNELQKDKMAEAYSEIGMKGERRRGKGHDGLYQGLSTATKDTYDALHMQALPPR
notes: member of group m44; also called 2G1-R2S anti-DLL3 CAR with safety switch, on primary T cells
With B6 the “Rec-DLL3+ gate, percent” value [3] was 66%.

B7: 4H8 R2S (other)
CAR: GGGGSCPYSNPSLCGGGGSCPYSNPSLCGGGGSQVQLQQSGPGLVKPSQTLSLTCAISGDSVSSNSATWNWIRQSPSRGLEWLGRTYYRSKWYDDYAVSVKSRITINPDTSKNHLSLHLNSVTPEDTAVYYCAGGGLVGAPDGFDVWGQGTMVTVSSGGGGSGGGGSGGGGSGGGGSQSVLTQPPSASGTPGQRVTISCSGSSSNIGSDPVNWYQQLPGTAPKLLIYSNNQRPSGVPDRFSGSKSGTSASLAISGLQSEDEADYYCSAWDDSLNGYVFGTGTKVTVLTTTPAPRPPTPAPTIASQPLSLRPEACRPAAGGAVHTRGLDFACDIYIWAPLAGTCGVLLLSLVITKRGRKKLLYIFKQPFMRPVQTTQEEDGCSCRFPEEEEGGCELRVKFSRSADAPAYQQGQNQLYNELNLGRREEYDVLDKRRGRDPEMGGKPRRKNPQEGLYNELQKDKMAEAYSEIGMKGERRRGKGHDGLYQGLSTATKDTYDALHMQALPPR
notes: member of group m45; also called 4H8-R2S anti-DLL3 CAR with safety switch, on primary T cells
For B7, the “Rec-DLL3+ gate, percent” value [3] was 58.6%.

B8: 3E4 (antibody, V domains shown)
VH: QVQLQQWGAGLLKPSETLSLTCAVYGGSFSGYYWSWIRQPPGKGLEWIGEIIHSGSSNYNPSLKSRVSISVDTSKNQFSLKLSSVTAADTAVYYCSRGEYGSGSRFDYWGQGTLVTVSS
VL: AIQMTQSPSSLSASVGDRVAITCRASQGIRDDLGWYQQKPGKAPKLLIYAASSLQSGVPSRFSGSRSDTDFTLTISSLQPEDFATYYCLQDYDYPLTFGGGTKVEIK
notes: also called anti-DLL3 antibody 3E4 (purified, mouse IgG2A backbone)
B8: binds [1].
